The numbers were not newly measured in PMC3899951, which cites them from elsewhere.

The target in data set [1] is histone H4 K5,8,12,16ac peptide (Homo sapiens) (UniProt P62805).
For data set [2], the target named is histone H4 singly acetylated peptide (Homo sapiens) (UniProt P62805).

By Kd is commonly meant the equilibrium constant for the complex coming apart. Take “TAFII250 tandem bromodomain (from UniProt P21675)”: the dissociation constant (Kd) in data set [1] was 5 µM; in data set [2], 39 µM.
